In paper PMC11342882 (Molecular Therapy. Methods & Clinical Development, 2024):

Target: Delta-RBD (SARS-CoV-2, UniProt P0DTC2)
Assay: BLI

B1: sACE2_(2).S14-IgG1 (Fc fusion)
chain: QSTIEEQAKYFLDKFNHEAEDLFYQSSLASWNYNTNITEENVQNMNNAGDKWSAFLKEQSTTAQMYPLQEIQNLTVKLQLQALQQNGSSVLSEDKSKRLNTILNTMSTIYSTGKVCNPDNPQECLLLEPGLNEIMANSLDYNERLWAWESWRSEVGKQLRPLYEEYVVLKNEMARANHYEDYGDYWRGDYEVNGVDGYDYSRGQLIEDVEHTFEEIKPLYEHLHAYVRAKLMNAYPSYISPIGCLPAHLLGDMWGRFWTNLYSLTVPFGQKPNIDVTDAMVDQAWDAQRIFKEAEKFFVSVGLPNMTQGFWEYSMLTDPGNVQKAVCHPTAWDLGKGDFRILMCTKVTMDDFLTAHHEMGHIQYDMAYAAQPFLLRNGANEGFHEAVGEIMSLSAATPKHLKSIGLLSPDFQEDNETEINFLLKQALTIVGTLPFTYMLEKWRWMVFKGEIPKDQWMKKWWEMKREIVGVVEPVPHDETYCDPASLFHVSNDYSFIRYYTRTLYQFQFQEALCQAAKHEGPLHKCDISNSTEAGQKLFNMLRLGKSEPWTLALENVVGAKNMNVRPLLNYFEPLFTWLKDQNKNSFVGWSTDWSPYADQSIKVRISLKSALGDKAYEWNDNEMYLFRSSVAYAMRQYFLKVKNQTILFGEEDVRVANLKPRISFNFFVTAPKNVSDIIPRTEVEKAIRMSRSRINDAFRLNDSSLEFLGIQPTLG
Q: How did the koff turn out when B1 was run?
A: 0.00087 s⁻¹
